# Measurements as given in publication PMC3478510, “LI-cadherin cis-dimerizes in the plasma membrane Ca^2+ independently and forms highly dynamic trans-contacts” (Cellular and Molecular Life Sciences: CMLS, 2012).
# T1: LI-cadherin C-terminally tagged with cyan (LI-CFP) or yellow (LI-YFP) fluorescent protein (UniProt Q9R100 26-827)
# T1 construct: LI-cadherin (cadherin-17); Two differently tagged copies of the same protein (CFP donor, YFP acceptor), co-expressed for FRET; In the control with EGFR-CFP only the YFP-tagged copy was present; also called LI-cadherin-CFP fusion protein; LI-cadherin-YFP fusion protein; source: HEK293, transfected (FuGENE-6), in living cells; not shown: CFP (on one copy) or YFP (on the other copy), C-terminal, kept
# T1 sequence (looked up): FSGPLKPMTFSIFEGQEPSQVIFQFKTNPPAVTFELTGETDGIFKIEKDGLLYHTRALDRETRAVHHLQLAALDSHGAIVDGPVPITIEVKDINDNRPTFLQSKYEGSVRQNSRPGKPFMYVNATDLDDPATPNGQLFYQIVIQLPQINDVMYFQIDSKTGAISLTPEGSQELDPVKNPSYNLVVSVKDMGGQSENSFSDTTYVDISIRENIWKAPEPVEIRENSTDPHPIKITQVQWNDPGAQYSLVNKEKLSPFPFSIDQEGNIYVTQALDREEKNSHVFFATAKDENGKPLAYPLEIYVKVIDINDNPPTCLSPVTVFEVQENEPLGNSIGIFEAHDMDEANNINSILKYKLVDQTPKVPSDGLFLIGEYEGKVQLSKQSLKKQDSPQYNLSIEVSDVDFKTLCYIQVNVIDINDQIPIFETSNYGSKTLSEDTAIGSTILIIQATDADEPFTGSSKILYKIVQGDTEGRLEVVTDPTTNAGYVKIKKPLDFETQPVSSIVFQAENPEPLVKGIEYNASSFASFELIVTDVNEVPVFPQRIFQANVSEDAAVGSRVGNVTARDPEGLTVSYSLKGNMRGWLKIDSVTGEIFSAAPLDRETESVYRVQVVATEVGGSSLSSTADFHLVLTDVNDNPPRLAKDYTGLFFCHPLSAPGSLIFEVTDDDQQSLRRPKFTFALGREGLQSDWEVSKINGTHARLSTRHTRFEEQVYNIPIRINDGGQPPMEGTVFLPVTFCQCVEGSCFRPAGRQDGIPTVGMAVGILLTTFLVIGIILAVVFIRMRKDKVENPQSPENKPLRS
# Tests used:
# [1] = target: LI-cadherin ECD (Homo sapiens) (UniProt Q12864); conditions: cited from earlier work
# [2] = target: T1, LI-cadherin C-terminally tagged with …; test: FRET or BRET; FRET competition: twofold excess of untagged LI-cadherin coexpressed with LI-CFP and LI-YFP in HEK293 cells; acceptor photobleaching; conditions: partners not purified
# Sequence of LI-cadherin ECD (Q12864 23-787): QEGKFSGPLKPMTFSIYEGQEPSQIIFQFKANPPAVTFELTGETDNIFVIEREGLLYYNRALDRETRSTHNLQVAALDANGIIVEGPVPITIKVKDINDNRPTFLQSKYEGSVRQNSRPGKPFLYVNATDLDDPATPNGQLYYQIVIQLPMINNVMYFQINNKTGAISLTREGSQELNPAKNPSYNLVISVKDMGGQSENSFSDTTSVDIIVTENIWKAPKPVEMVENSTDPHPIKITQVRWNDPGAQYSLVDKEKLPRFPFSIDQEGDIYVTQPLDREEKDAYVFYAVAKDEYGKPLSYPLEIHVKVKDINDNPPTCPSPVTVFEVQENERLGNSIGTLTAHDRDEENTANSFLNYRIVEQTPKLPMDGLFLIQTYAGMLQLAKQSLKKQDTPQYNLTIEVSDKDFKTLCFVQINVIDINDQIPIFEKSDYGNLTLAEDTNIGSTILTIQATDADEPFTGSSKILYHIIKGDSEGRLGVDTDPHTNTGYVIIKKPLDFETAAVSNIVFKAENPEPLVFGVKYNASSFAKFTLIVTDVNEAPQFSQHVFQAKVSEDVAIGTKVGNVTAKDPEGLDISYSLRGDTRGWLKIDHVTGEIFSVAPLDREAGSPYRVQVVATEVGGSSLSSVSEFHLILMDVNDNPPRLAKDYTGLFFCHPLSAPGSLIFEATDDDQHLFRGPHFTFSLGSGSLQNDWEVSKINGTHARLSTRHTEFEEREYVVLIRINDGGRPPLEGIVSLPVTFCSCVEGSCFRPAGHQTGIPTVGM
FRET efficiency of LI-CFP/LI-YFP with a twofold excess of untagged LI-cadherin [2] [%],Molecule,Kd [1] [µM]
–,LI-cadherin ECD (from UniProt Q12864),27
5.2,"untagged LI-cadherin (natural protein, UniProt Q9R100 26-827, looked up, LI-cadherin (cadherin-17), untagged wild type; The expression construct of the untagged protein is not described in the methods; also called LIwt; wild-type LI; source: HEK293, transfected, in living cells (twofold excess, coexpressed with LI-CFP and LI-YFP)) FSGPLKPMTFSIFEGQEPSQVIFQFKTNPPAVTFELTGETDGIFKIEKDGLLYHTRALDRETRAVHHLQLAALDSHGAIVDGPVPITIEVKDINDNRPTFLQSKYEGSVRQNSRPGKPFMYVNATDLDDPATPNGQLFYQIVIQLPQINDVMYFQIDSKTGAISLTPEGSQELDPVKNPSYNLVVSVKDMGGQSENSFSDTTYVDISIRENIWKAPEPVEIRENSTDPHPIKITQVQWNDPGAQYSLVNKEKLSPFPFSIDQEGNIYVTQALDREEKNSHVFFATAKDENGKPLAYPLEIYVKVIDINDNPPTCLSPVTVFEVQENEPLGNSIGIFEAHDMDEANNINSILKYKLVDQTPKVPSDGLFLIGEYEGKVQLSKQSLKKQDSPQYNLSIEVSDVDFKTLCYIQVNVIDINDQIPIFETSNYGSKTLSEDTAIGSTILIIQATDADEPFTGSSKILYKIVQGDTEGRLEVVTDPTTNAGYVKIKKPLDFETQPVSSIVFQAENPEPLVKGIEYNASSFASFELIVTDVNEVPVFPQRIFQANVSEDAAVGSRVGNVTARDPEGLTVSYSLKGNMRGWLKIDSVTGEIFSAAPLDRETESVYRVQVVATEVGGSSLSSTADFHLVLTDVNDNPPRLAKDYTGLFFCHPLSAPGSLIFEVTDDDQQSLRRPKFTFALGREGLQSDWEVSKINGTHARLSTRHTRFEEQVYNIPIRINDGGQPPMEGTVFLPVTFCQCVEGSCFRPAGRQDGIPTVGMAVGILLTTFLVIGIILAVVFIRMRKDKVENPQSPENKPLRS",–
